Publication doi:10.1101/2023.05.29.542693 (bioRxiv, 2023)

Experiments:
[1] = molecular target: the molecule itself; test: cryo-EM structure
[2] = molecular target: Escherichia coli GroEL (wild-type, tetradecamer) (E. coli, UniProt P0A6F5 1-548); test: cryo-EM structure
Chain of Escherichia coli GroEL (wild-type, tetradecamer) (P0A6F5 whole entry): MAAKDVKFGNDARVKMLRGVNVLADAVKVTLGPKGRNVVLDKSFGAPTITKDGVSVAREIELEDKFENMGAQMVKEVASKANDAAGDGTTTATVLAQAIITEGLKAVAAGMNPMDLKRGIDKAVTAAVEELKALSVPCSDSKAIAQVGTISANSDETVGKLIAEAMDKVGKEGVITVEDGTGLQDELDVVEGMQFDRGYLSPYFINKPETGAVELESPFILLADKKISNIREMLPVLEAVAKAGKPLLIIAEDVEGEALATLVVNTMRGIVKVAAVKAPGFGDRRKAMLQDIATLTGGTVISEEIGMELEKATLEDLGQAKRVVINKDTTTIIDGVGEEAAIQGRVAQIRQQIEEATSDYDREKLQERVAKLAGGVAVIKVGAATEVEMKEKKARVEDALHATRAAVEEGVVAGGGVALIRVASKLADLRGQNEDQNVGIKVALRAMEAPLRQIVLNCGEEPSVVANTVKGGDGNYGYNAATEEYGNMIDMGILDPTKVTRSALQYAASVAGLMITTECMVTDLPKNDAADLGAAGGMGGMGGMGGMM

B1: Escherichia coli GroES (heptameric co-chaperonin) (natural protein)
chain: MNIRPLHDRVIVKRKEVETKSAGGIVLTGSAAAKSTRGEVLAVGNGRILENGEVKPLDVKVGDIVIFNDGYGVKSEKIDNEEVLIMSESDILAIVEA
B1: binds [1]; binds [2].
